Patent publication JP2005325133A (dated 2005)
Each block holds one binder with its values, some of them ahead of it. cellulose membrane = not defined here

Assays:
[1] = target: T1, 13-mer peptide, amino acids 61-73 of HLA-DR β chain (DRB1*15011), SEQ ID NO 82 (human, reading uncertain); assay: SPOT peptide membrane
T1 construct: SPOT peptide on cellulose membrane (JERINI); also called 配列番号82; 61番目〜73番目
T1 peptide: Ac-WNSQKDILEQARA-{cellulose membrane}

[2] = target: T2, 13-mer peptide, amino acids 63-75 of HLA-DR β chain (DRB1*15011), SEQ ID NO 83 (human, reading uncertain); assay: SPOT peptide membrane, chemiluminescence (LumiImager)
T2 construct: SPOT peptide; also called 配列番号83; 63番目〜75番目
T2 peptide: Ac-SQKDILEQARAAV-{cellulose membrane}

[3] = target: T3, 13-mer peptide, amino acids 65-77 of HLA-DR β chain (DRB1*15011), SEQ ID NO 84 (human, reading uncertain); assay: as above
T3 construct: SPOT peptide; also called 配列番号84; 65番目〜77番目
T3 peptide: Ac-KDILEQARAAVDT-{cellulose membrane}

[4] = target: T4, HLA-DR DRB1*15011/DRA*0101 forcibly expressed on L cells (ATCC CCL-1) (human, UniProt P01903 26-254; P01911 30-266); assay: flow cytometry on transfected L cells
T4 construct: whole, on cells

SEQ ID NO 48 = target: T5, SEQ ID NO 48 (human); assay: peptide spot blot, chemiluminescence (LAS2000)
T5 construct: also called 配列番号48
T5 peptide: WNSQADLLEQRRA

SEQ ID NO 49 = target: T6, SEQ ID NO 49 (human); assay: peptide spot blot, chemiluminescence (LAS2000)
T6 construct: also called 配列番号49
T6 peptide: WNSQKALLEQRRA

SEQ ID NO 50 = target: T7, SEQ ID NO 50 (human); assay: peptide spot blot, chemiluminescence (LAS2000)
T7 construct: also called 配列番号50
T7 peptide: WNSQKDLLAQRRA

SEQ ID NO 51 = target: T8, SEQ ID NO 51 (human); assay: peptide spot blot, chemiluminescence (LAS2000)
T8 construct: also called 配列番号51
T8 peptide: WNSQKDLLEQRAA

[5] = target: T1, 13-mer peptide, amino acids 61-73 of …; assay: SPOT peptide membrane, chemiluminescence (LumiImager)
SEQ ID NO 24 = target: T9, SEQ ID NO 24 (human); assay: peptide spot blot, antibody 1 μg/mL, chemiluminescence (LAS2000)
T9 construct: One of 16 peptides covering the polymorphic variants of HLA-DR β chain 61-73; also called 配列番号24
T9 peptide: WNSQKDFLEDRRA

SEQ ID NO 25 = target: T10, SEQ ID NO 25 (human); assay: as above
T10 construct: One of 16 peptides covering the polymorphic variants of HLA-DR β chain 61-73; also called 配列番号25
T10 peptide: WNSQKDFLERRRA

SEQ ID NO 26 = target: T11, SEQ ID NO 26 (human); assay: as above
T11 construct: One of 16 peptides covering the polymorphic variants of HLA-DR β chain 61-73; also called 配列番号26
T11 peptide: WNSQKDFLEDERA

SEQ ID NO 27 = target: T12, SEQ ID NO 27 (human); assay: as above
T12 construct: One of 16 peptides covering the polymorphic variants of HLA-DR β chain 61-73; also called 配列番号27
T12 peptide: WNSQKDFLEQARA

SEQ ID NO 28 = target: T13, SEQ ID NO 28 (human); assay: as above
T13 construct: One of 16 peptides covering the polymorphic variants of HLA-DR β chain 61-73; also called 配列番号28
T13 peptide: WNSQKDILEDERA

SEQ ID NO 29 = target: T14, SEQ ID NO 29 (human); assay: as above
T14 construct: One of 16 peptides covering the polymorphic variants of HLA-DR β chain 61-73; also called 配列番号29
T14 peptide: WNSQKDILEQKRG

SEQ ID NO 30 = target: T15, SEQ ID NO 30 (human); assay: as above
T15 construct: One of 16 peptides covering the polymorphic variants of HLA-DR β chain 61-73; also called 配列番号30
T15 peptide: WNSQKDILEDRRA

SEQ ID NO 31 = target: T16, SEQ ID NO 31 (human); assay: as above
T16 construct: One of 16 peptides covering the polymorphic variants of HLA-DR β chain 61-73; also called 配列番号31
T16 peptide: WNSQKDILEDRRG

SEQ ID NO 32 = target: T17, SEQ ID NO 32 (human); assay: as above
T17 construct: One of 16 peptides covering the polymorphic variants of HLA-DR β chain 61-73; also called 配列番号32
T17 peptide: WNSQKDILEDKRA

SEQ ID NO 33 = target: T18, SEQ ID NO 33 (human); assay: as above
T18 construct: One of 16 peptides covering the polymorphic variants of HLA-DR β chain 61-73; also called 配列番号33
T18 peptide: WNSQKDILEQARA

SEQ ID NO 34 = target: T19, SEQ ID NO 34 (human); assay: as above
T19 construct: One of 16 peptides covering the polymorphic variants of HLA-DR β chain 61-73; also called 配列番号34
T19 peptide: WNSQKDLLEQRRA

SEQ ID NO 35 = target: T20, SEQ ID NO 35 (human); assay: as above
T20 construct: One of 16 peptides covering the polymorphic variants of HLA-DR β chain 61-73; also called 配列番号35
T20 peptide: WNSQKDLLEQARA

SEQ ID NO 36 = target: T21, SEQ ID NO 36 (human); assay: as above
T21 construct: One of 16 peptides covering the polymorphic variants of HLA-DR β chain 61-73; also called 配列番号36
T21 peptide: WNSQKDLLEQKRG

SEQ ID NO 37 = target: T22, SEQ ID NO 37 (human); assay: as above
T22 construct: One of 16 peptides covering the polymorphic variants of HLA-DR β chain 61-73; also called 配列番号37
T22 peptide: WNSQKDLLEDRRA

SEQ ID NO 38 = target: T23, SEQ ID NO 38 (human); assay: as above
T23 construct: One of 16 peptides covering the polymorphic variants of HLA-DR β chain 61-73; also called 配列番号38
T23 peptide: WNSQKDLLERRRA

SEQ ID NO 39 = target: T24, SEQ ID NO 39 (human); assay: as above
T24 construct: One of 16 peptides covering the polymorphic variants of HLA-DR β chain 61-73; also called 配列番号39
T24 peptide: WNSQKDLLEDERA

SEQ ID NO 40 = target: T25, SEQ ID NO 40 (human); assay: as above
T25 construct: also called 配列番号40
T25 peptide: WNSQKDALEQRRA

SEQ ID NO 41 = target: T26, SEQ ID NO 41 (human); assay: as above
T26 construct: also called 配列番号41
T26 peptide: WNSQKDLLEARRA

SEQ ID NO 42 = target: T27, SEQ ID NO 42 (human); assay: as above
T27 construct: also called 配列番号42
T27 peptide: WNSQKDLLEQARA

SEQ ID NO 43 = target: T28, SEQ ID NO 43 (human); assay: as above
T28 construct: also called 配列番号43
T28 peptide: WNSQKDLLEQRRG

SEQ ID NO 44 = target: T29, SEQ ID NO 44 (human); assay: as above
T29 construct: also called 配列番号44
T29 peptide: ANSQKDLLEQRRA

SEQ ID NO 45 = target: T30, SEQ ID NO 45 (human); assay: as above
T30 construct: also called 配列番号45
T30 peptide: WASQKDLLEQRRA

SEQ ID NO 46 = target: T31, SEQ ID NO 46 (human); assay: as above
T31 construct: also called 配列番号46
T31 peptide: WNAQKDLLEQRRA

SEQ ID NO 47 = target: T32, SEQ ID NO 47 (human); assay: as above
T32 construct: also called 配列番号47
T32 peptide: WNSAKDLLEQRRA

- binding result [1]: binds
- binding result [2]: binds
- binding result [3]: binds
B1: human anti-HLA-DR monoclonal antibody HD4 (hybridoma HD4, FERM BP-7771) (antibody, V domains shown)
VH: EVQLLESGGGLVQPGGSLRLSCAASGFTFSSYAMTWVRQAPGKGLEWVSGISGGGDSTYYADSVKGRFTISRDNSKNTLYLQMNSLRAEDTAVYYCARDHGSGSYYPYWFDYWGQGTLVTVSS
VL: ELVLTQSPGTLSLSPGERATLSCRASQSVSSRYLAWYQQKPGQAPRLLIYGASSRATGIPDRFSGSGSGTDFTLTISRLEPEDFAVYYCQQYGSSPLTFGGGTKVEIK
notes: Human IgG with kappa light chain from a KM mouse hybridoma

- binding result [4]: binds
- binding result (SEQ ID NO 48): no binding (tested: 1μg/mL)
- binding result (SEQ ID NO 49): no binding (tested: 1μg/mL)
- binding result (SEQ ID NO 50): no binding (tested: 1μg/mL)
- binding result (SEQ ID NO 51): no binding (tested: 1μg/mL)
- binding result [5]: binds
- binding result [2]: binds
- binding result [3]: binds
- binding result (SEQ ID NO 24): binds
- binding result (SEQ ID NO 25): binds
- binding result (SEQ ID NO 26): binds
- binding result (SEQ ID NO 27): binds
- binding result (SEQ ID NO 28): binds
- binding result (SEQ ID NO 29): binds
- binding result (SEQ ID NO 30): binds
- binding result (SEQ ID NO 31): binds
- binding result (SEQ ID NO 32): binds
- binding result (SEQ ID NO 33): binds
- binding result (SEQ ID NO 34): binds
- binding result (SEQ ID NO 35): binds
- binding result (SEQ ID NO 36): binds
- binding result (SEQ ID NO 37): binds
- binding result (SEQ ID NO 38): binds
- binding result (SEQ ID NO 39): binds
- binding result (SEQ ID NO 40): binds
- binding result (SEQ ID NO 41): binds
- binding result (SEQ ID NO 42): binds
- binding result (SEQ ID NO 43): binds
- binding result (SEQ ID NO 44): binds
- binding result (SEQ ID NO 45): binds
- binding result (SEQ ID NO 46): binds
- binding result (SEQ ID NO 47): binds
B2: human anti-HLA-DR monoclonal antibody HD8 (hybridoma HD8, FERM BP-7773) (antibody, V domains shown)
VH: QVQLQHSGPGLVKPSQTLSLTCAISGDSVSSNSASWNWIRQSPSRGLEWLGRTYYRSKWYNDYAVSVKSRIVINPDTSKNQFSLQLNSVTPEDTAVYYCARENFYGSETCHKKYYCYGMDVWGQGTTVTVSS
VL: AIQLTQSPSSLSASVGDRVTITCRASQGISSALAWYQQKPGKAPKLLIYDASSLESGVPSRFSGSGSGTDFTLTISSLQPEDFATYYCQQFNSFPLTFGGGTKVEIK
notes: as for B1
